From paper PMC6954390, “Negative cooperativity between Gemin2 and RNA provides insights into RNA selection and the SMN complex's release in snRNP assembly”
Substitutions are numbered along the chain they refer to.

Tests used:
SmD1s (Sm …) [1] = target: T1, SmD1s (Sm fold);SmD2;SmF;SmE;SmG;Gemin2ΔN39;SMNGe2BD (human;human;human;human;human;human;huma …, UniProt P62314;P62316;P62306;P62304;P62308;O14893;Q16637 …, del83-119|||||del1-39|); test: EMSA; 7SΔN; Sm subcore formed; EMSA: 20 mM Tris-HCl pH 8.0, 250 mM NaCl, 2 mM MgCl2, 1 mM EDTA, 1 mM DTT, 37 C 40 min, RNA 50 pM and complex 2.5-10 pM as printed; GFC assembly assay conditions not in the material; details: protein: recombinant;recombinant;recombinant;recombinant;recombinant;recombinant;recombinant; copies: 1;1;1;1;1;1;1; 5' and 3' stem-loops flank the Sm site
SmD1s (Sm …) [2] = target: T1, SmD1s (Sm …); test: GFC/SDS-PAGE; 7SΔN; EMSA: 20 mM Tris-HCl pH 8.0, 250 mM NaCl, 2 mM MgCl2, 1 mM EDTA, 1 mM DTT, 37 C 40 min, RNA 50 pM and complex 2.5-10 pM as printed; GFC assembly assay conditions not in the material; details: protein: recombinant;recombinant;recombinant;recombinant;recombinant;recombinant;recombinant, copies: 1;1;1;1;1;1;1
SmD1;SmD2;SmF;SmE;SmG [3] = target: T2, SmD1;SmD2;SmF;SmE;SmG (human;human;human;human;human, UniProt P62314;P62316;P62306;P62304;P62308 1-119;1-118;1-86;1-92;1-76, ||||); test: GFC; 5Sm without Gemin2; EMSA: 20 mM Tris-HCl pH 8.0, 250 mM NaCl, 2 mM MgCl2, 1 mM EDTA, 1 mM DTT, 37 C 40 min, RNA 50 pM and complex 2.5-10 pM as printed; GFC assembly assay conditions not in the material; details: protein: recombinant;recombinant;recombinant;recombinant;recombinant, copies: 1;1;1;1;1
SmD1s (Sm …) [4] = target: T1, SmD1s (Sm …); test: GFC/SDS-PAGE; 7SΔN; Gemin2 starts to be released; EMSA: 20 mM Tris-HCl pH 8.0, 250 mM NaCl, 2 mM MgCl2, 1 mM EDTA, 1 mM DTT, 37 C 40 min, RNA 50 pM and complex 2.5-10 pM as printed; GFC assembly assay conditions not in the material; details: protein: recombinant;recombinant;recombinant;recombinant;recombinant;recombinant;recombinant; copies: 1;1;1;1;1;1;1; 3' stem-loop
SmD1s (Sm …) [5] = target: T1, SmD1s (Sm …); test: GFC; 7SΔN; EMSA: 20 mM Tris-HCl pH 8.0, 250 mM NaCl, 2 mM MgCl2, 1 mM EDTA, 1 mM DTT, 37 C 40 min, RNA 50 pM and complex 2.5-10 pM as printed; GFC assembly assay conditions not in the material; details: protein: recombinant;recombinant;recombinant;recombinant;recombinant;recombinant;recombinant; copies: 1;1;1;1;1;1;1; single-stranded
SmD1;SmD2;SmF;SmE;SmG [6] = target: T2, SmD1;SmD2;SmF;SmE;SmG; test: GFC/SDS-PAGE; 5Sm without Gemin2; EMSA: 20 mM Tris-HCl pH 8.0, 250 mM NaCl, 2 mM MgCl2, 1 mM EDTA, 1 mM DTT, 37 C 40 min, RNA 50 pM and complex 2.5-10 pM as printed; GFC assembly assay conditions not in the material; details: protein: recombinant;recombinant;recombinant;recombinant;recombinant; copies: 1;1;1;1;1
[7] = target: T3, SmD1s (Sm fold);SmD2;SmF;SmE;SmG;SmD3 (Sm fold);SmB (Sm fold) (human;human;human;human;human;human;huma …, UniProt P62314;P62316;P62306;P62304;P62308;P62318;P14678 …, del83-119||||||); test: GFC/SDS-PAGE; 7SΔN + SmD3/B input; complete core, Gemin2ΔN39/SMNGe2BD released; EMSA: 20 mM Tris-HCl pH 8.0, 250 mM NaCl, 2 mM MgCl2, 1 mM EDTA, 1 mM DTT, 37 C 40 min, RNA 50 pM and complex 2.5-10 pM as printed; GFC assembly assay conditions not in the material; details: protein: recombinant;recombinant;recombinant;recombinant;recombinant;recombinant;recombinant; copies: 1;1;1;1;1;1;1; stem-loops flank the Sm site
[8] = target: T3, SmD1s (Sm fold);SmD2;SmF;SmE;SmG;SmD3 …; test: GFC/SDS-PAGE; 7SΔN + SmD3/B input; core formation to completion; EMSA: 20 mM Tris-HCl pH 8.0, 250 mM NaCl, 2 mM MgCl2, 1 mM EDTA, 1 mM DTT, 37 C 40 min, RNA 50 pM and complex 2.5-10 pM as printed; GFC assembly assay conditions not in the material; details: protein: recombinant;recombinant;recombinant;recombinant;recombinant;recombinant;recombinant; copies: 1;1;1;1;1;1;1; stem-loops; 3 nt spacer 5' of Sm site

B1: U4 (structured_RNA)
RNA: GGGAAUUGAAAACUUUUCCCAAUACCCCGCCGUGACGACUUGCAAUAUAGUCGGCACUGGCAAUUUUUGACAGUCUCUACGGAGACUG
- binding signal (SmD1s (Sm …) [1]): ~2 fold vs 7S

B2: U4ΔSm (structured_RNA)
RNA: B1 RNA with U64C, U65C, U66C, U67C, U68C
- binding result (SmD1s (Sm …) [2]; 5' and 3' stem-loops): no binding

B3: U4-5'ss (structured_RNA)
RNA: GGGAAUUGAAAACUUUUCCCAAUACCCCAAUUUUUGACAGUCUCUACGGAGACUG
- binding result (SmD1;SmD2;SmF;SmE;SmG [3]; 3' stem-loop): binds
- binding result (SmD1s (Sm …) [4]): binds

B4: U4-3'Δ (structured_RNA)
RNA: GGGAAUUGAAAACUUUUCCCAAUACCCCGCCGUGACGACUUGCAAUAUAGUCGGCACUGGCAAUUUUUGAC
- binding result (SmD1s (Sm …) [2]; 5' stem-loop): no binding

B5: U4-5'Δ-3'ss (ssRNA)
RNA: GGCAAUUUUUGACAGUCUCUACGCUCUGAC
- binding result (SmD1s (Sm …) [5]): binds

B6: 3'Sm (ssRNA)
RNA: GGGAAUUGAAAACUUUUCCCAAUACCCCAAUUUUUGA
- binding result (SmD1;SmD2;SmF;SmE;SmG [6]): binds
- binding result (SmD1s (Sm …) [2]): no binding

B7: U4-5'Δ (structured_RNA)
RNA: GGCAAUUUUUGACAGUCUCUACGGAGACUG
- binding result (SmD1;SmD2;SmF;SmE;SmG [3]; 3' stem-loop): binds

B8: 9nt Sm site (ssRNA)
RNA: AAUUUUUGA
- binding result (SmD1;SmD2;SmF;SmE;SmG [3]; single-stranded): binds

B9: flU4 (structured_RNA)
RNA: GGGCAGCUUUGCGCAGUGGCAGUAUCGUAGCCAAUGAGGUCUAUCCGAGGCGCGAUUAUUGCUAAUUGAAAACUUUUCCCAAUACCCCGCCGUGACGACUUGCAAUAUAGUCGGCACUGGCAAUUUUUGACAGUCUCUACGGAGACUG
- binding result [7]: binds

B10: flU4-spacer (structured_RNA)
RNA: B9 RNA with G119C, G120C, C121G
- binding result [8]: binds
